Results taken from patent US20180298357A1.

Columns and labels:
[1] = molecular target: DNA polymerase I (Sau) of Staphylococcus aureus (Staphylococcus aureus); experiment: cell-based or functional assay
[2] = molecular target: Sau-TBD, hybrid DNA polymerase prepared by inserting a thioredoxin binding domain (TBD) of bacteriophage T7 DNA polymerase into DNA polymerase I (Sau) of S. aureus; experiment: cell-based or functional assay

Q: What does the source list for “TrxA (thioredoxin of E. coli) (from UniProt P0AA25 2-109)”?
A: Polymerization activities (units/mg protein), +TrxA (units/mg protein) [1]: 3100; Average amplification length of primers (nt) [1/(1 - PI)], in the presence of TrxA [2]: 74.1 nt; Micro continuous synthetic capacities (PI), in the presence of TrxA [2]: 0.987; Polymerization activities (units/mg protein), +TrxA (units/mg protein) [2]: 2860; fold improvement of average amplification length of the primer on addition of TrxA [2]: > 20 fold; fold improvement of polymerization activity on addition of TrxA [2]: > 2 fold
